Data: US20210269818A1

Target: Rubisco purified from wheat leaves, inhibited by RuBP (ER) (Triticum aestivum (wheat)) (UniProt P11383)
Assay: cell-based or functional assay

Substance | Tm (° C.) (V): thermal midpoint at which half of Rubisco activation velocity by Rca is lost
Rca extracted from control wheat leaves (TaRca-leaf-25° C.) (enzyme) | 38.6
Rca extracted from heat treated wheat leaves (TaRca-leaf-38° C.) (enzyme) | 39.5
recombinant rice Rca β (OsRca-β), signal peptide deleted, C-terminal His-tag (from UniProt P93431 49-466) (enzyme) | 42.5
recombinant wheat Rca1 β (TaRca1-β), signal peptide deleted, C-terminal His-tag (from UniProt Q42450 44-425) (enzyme) | 42
recombinant wheat Rca2 α (TaRca2-α), signal peptide deleted, C-terminal His-tag (from UniProt Q40073 47-464) (enzyme) | 35.3
recombinant wheat Rca2 β (TaRca2-β), signal peptide deleted, C-terminal His-tag (from UniProt Q40073 49-427) (enzyme) | 34.8
